Source: the supplement of paper PMC10724198
± gives the standard deviation of the averaged measurements.

Tested on: Saccharomyces cerevisiae
Test: protein stability index of tFT-peptide fusion in wild type (PSI (0-1 scale)); higher = more stable (slower turnover)
Conditions: genetic background: wild type
Description: (§1)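 MPS profiling in S. cerevisiae of two library types built from selected 12-aa C-degron peptides (IN1, IN2, LN1, LN3, VN2, R1-R5, W1-W3, Atg1 and Rpa12 C-termini): saturation mutagenesis libraries and C-terminal +1 capping libraries (13 aa). Each peptide is fused to the C-terminus of a sfGFP-mCherry timer, after a GGGS linker. Cells are FACS-sorted into 8 mCherry/sfGFP bins and sequenced. PSI runs from 0 (unstable) to 1 (stable), measured once in wild type and in the das1Δ or doa10Δ background.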
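For protein stability index of tFT-peptide fusion in deletion strain of DAS1 in this document: PSI is a weighted mean of each variant's read distribution over the sorted stability bins, computed only for variants having over 10 reads in total.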
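For protein stability index of tFT-peptide fusion in wild type in this document: PSI derived as read-weighted mean over the 8 sorting bins, only variants exceeding 10 total reads kept, mCherry placed adjacent to the peptide and sfGFP distal.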

| Sequence | protein stability index |
| --- | --- |
| ARFRVGLWRGAS | 0.56 |
| ARPRVGLWRGAS | 0.65 |
| ARWAVGLWRGAS | 0.428 |
| ARWRQGLWRGAS | 0.678 |
| ARWRVGGWRGAS | 0.557 |
| ARWRVGLWDGAS | 0.705 |
| ARWRVGLWRGAE | 0.644 |
| ARWRVGLWRGAK | 0.669 |
| ARWRVGLWRGASC | 0.628 |
| ARWRVGLWRGASS | 0.593 |
| ARWRVGLWRGCS | 0.266 |
| ARWRVGLWRGYS | 0.621 |
| ARWRVGLWRMAS | 0.0865 |
| ARWRVGMWRGAS | 0.458 |
| ARWRVGNWRGAS | 0.684 |
| ARWRVGPWRGAS | 0.577 |
| ARWRVGRWRGAS | 0.533 |
| ARWRVTLWRGAS | 0.382 |
| ARWSVGLWRGAS | 0.448 |
| ATWRVGLWRGAS | 0.487 |
| CGSCGYKFRTNN | 0.265 |

| Sequence | protein stability index |
| --- | --- |
| CISCGYKFRTNN | 0.211 |
| CTSCGFKFRTNN | 0.486 |
| CTSCGMKFRTNN | 0.304 |
| CTSCGYKFCTNN | 0.377 |
| CTSCGYKFPTNN | 0.71 |
| CTSCGYKFRCNN | 0.487 |
| CTSCGYKFRINN | 0.233 |
| CTSCGYKFRLNN | 0.35 |
| CTSCGYKFRTDN | 0.65 |
| CTSCGYKFRTNE | 0.726 |
| CTSCGYKFRTNM | 0.156 |
| CTSCGYKFRTNNA | 0.698 |
| CTSCGYKFRTNNE | 0.709 |
| CTSCGYKFRTNNV | 0.684 |
| CTSCGYKYRTNN | 0.295 |
| CTSCGYMFRTNN | 0.357 |
| CTSCHYKFRTNN | 0.26 |
| CVVYLSCVACIN | 0.0137 |
| DRWRVGLWRGAS | 0.413 |
| DTSCGYKFRTNN | 0.241 |
| FAMRWTFRYWVN | 0.0656 |

| Sequence | protein stability index |
| --- | --- |
| FKILRQKMNHQN | 0.168 |
| FSDRWTFRYWVN | 0.095 |
| FSMGWTFRYWVN | 0.0807 |
| FSMLWTFRYWVN | 0.0376 |
| FSMRLTFRYWVN | 0.0555 |
| FSMRWQFRYWVN | 0.0795 |
| FSMRWTCRYWVN | 0.0505 |
| FSMRWTFEYWVN | 0.0782 |
| FSMRWTFRGWVN | 0.313 |
| FSMRWTFRYIVN | 0.202 |
| FSMRWTFRYWHN | 0.149 |
| FSMRWTFRYWVNF | 0.076 |
| FSMRWTFRYWVNH | 0.106 |
| FSMRWTFRYWVNK | 0.522 |
| FSMRWTFRYWVNR | 0.559 |
| FSMRWTFRYWVNS | 0.194 |
| FSMRWTFRYWVNT | 0.318 |
| FSMRWTPRYWVN | 0.0631 |
| FSMRWTVRYWVN | 0.0513 |
| FSMYWTFRYWVN | 0.0583 |
| FSVRWTFRYWVN | 0.0298 |

Tested on: Saccharomyces cerevisiae
Test: protein stability index of tFT-peptide fusion (C-terminal peptide) (PSI (0-1 scale)); higher = more stable (slower turnover)
Conditions: genetic background: das1 deletion; temperature: 30 C
Description: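 MPS profiling in S. cerevisiae of the yeast C-terminome library: the last 12 aa of each annotated ORF are fused to the C-terminus of a sfGFP-mCherry timer, after a GGGS linker. Cells are FACS-sorted into 8 mCherry/sfGFP bins and deep-sequenced. PSI runs from 0 (unstable) to 1 (stable); wild type and das1Δ backgrounds, two technical replicates each.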

| Sequence | protein stability index |
| --- | --- |
| WDGNLFVWNGLG [PEX7 C-terminal 12 aa] | 0.7335 ± 0.0029 |
| WKKDNKIQVVKN [GIM4 C-terminal 12 aa] | 0.725 ± 0.026 |
| WPRVASNSGVVV [RPL23A C-terminal 12 aa] | 0.7042 ± 0.0044 |
| WTALVVNILGRF [CWH41 C-terminal 12 aa] | 0.634 ± 0.012 |
| YAELAERKKQEN [COX9 C-terminal 12 aa] | 0.6916 ± 0.0031 |
| YAGENFHHGDKL [ENO2 C-terminal 12 aa] | 0.6954 ± 0.003 |
| YCIYQILILVKH [YCL065W C-terminal 12 aa] | 0.149 ± 0.019 |
| YDEDEGSDYDFI [SUP45 C-terminal 12 aa] | 0.6992 ± 0.0034 |
| YDENSKPKGTKE [FUN30 C-terminal 12 aa] | 0.6948 ± 0.0051 |
| YEAKLSKRILRD [SCM3 C-terminal 12 aa] | 0.7215 ± 0.0071 |
| YFVNNIIVRIQS [YKL118W C-terminal 12 aa] | 0.559 ± 0.009 |
| YGVPDAELKIVG [DGA1 C-terminal 12 aa] | 0.719 ± 0.02 |
| YHLFYMKLQKKI [SPE2 C-terminal 12 aa] | 0.6977 ± 0.0069 |
| YKELKDFIFAEK [GUK1 C-terminal 12 aa] | 0.692 ± 0.0077 |
| YKELVKKIESKN [CIT1 C-terminal 12 aa] | 0.7257 ± 0.0054 |
| YNKLKGAGHKKE [PAI3 C-terminal 12 aa] | 0.6777 ± 0.0045 |
| YNLKNDILTNLE [SWI1 C-terminal 12 aa] | 0.73 ± 0.021 |
| YVIVFFVYDSLL [YOL046C C-terminal 12 aa] | 0.238 ± 0.0075 |

Same assay, conditions: genetic background: wild type; temperature: 30 C

| Sequence | protein stability index |
| --- | --- |
| WDGNLFVWNGLG [PEX7 C-terminal 12 aa] | 0.4319 ± 0.0013 |
| WKKDNKIQVVKN [GIM4 C-terminal 12 aa] | 0.663 ± 0.019 |
| WPRVASNSGVVV [RPL23A C-terminal 12 aa] | 0.679 ± 0.018 |
| WTALVVNILGRF [CWH41 C-terminal 12 aa] | 0.634 ± 0.011 |
| YAELAERKKQEN [COX9 C-terminal 12 aa] | 0.6914 ± 0.0022 |
| YAGENFHHGDKL [ENO2 C-terminal 12 aa] | 0.749 ± 0.034 |
| YCIYQILILVKH [YCL065W C-terminal 12 aa] | 0.171 ± 0.013 |
| YDEDEGSDYDFI [SUP45 C-terminal 12 aa] | 0.684 ± 0.012 |
| YDENSKPKGTKE [FUN30 C-terminal 12 aa] | 0.704 ± 0.016 |
| YEAKLSKRILRD [SCM3 C-terminal 12 aa] | 0.723 ± 0.0073 |
| YFVNNIIVRIQS [YKL118W C-terminal 12 aa] | 0.329 ± 0.028 |
| YGVPDAELKIVG [DGA1 C-terminal 12 aa] | 0.672 ± 0.019 |
| YHLFYMKLQKKI [SPE2 C-terminal 12 aa] | 0.187 ± 0.013 |
| YKELKDFIFAEK [GUK1 C-terminal 12 aa] | 0.727 ± 0.035 |
| YKELVKKIESKN [CIT1 C-terminal 12 aa] | 0.7078 ± 0.0025 |
| YNKLKGAGHKKE [PAI3 C-terminal 12 aa] | 0.645 ± 0.0076 |
| YNLKNDILTNLE [SWI1 C-terminal 12 aa] | 0.651 ± 0.044 |
| YVIVFFVYDSLL [YOL046C C-terminal 12 aa] | 0.283 ± 0.015 |

Tested on: Saccharomyces cerevisiae
Test: protein stability index of tFT-peptide fusion in deletion strain of DAS1 (PSI (0-1 scale)); higher = more stable (slower turnover)
Conditions: not given
Description: as §1

| Sequence | protein stability index |
| --- | --- |
| ARFRVGLWRGAS | 0.668 |
| ARPRVGLWRGAS | 0.681 |
| ARWAVGLWRGAS | 0.71 |
| ARWRQGLWRGAS | 0.616 |
| ARWRVGGWRGAS | 0.701 |
| ARWRVGLWDGAS | 0.688 |
| ARWRVGLWRGAE | 0.685 |
| ARWRVGLWRGAK | 0.659 |
| ARWRVGLWRGASC | 0.669 |
| ARWRVGLWRGASS | 0.688 |
| ARWRVGLWRGCS | 0.683 |
| ARWRVGLWRGYS | 0.659 |
| ARWRVGLWRMAS | 0.683 |
| ARWRVGMWRGAS | 0.701 |
| ARWRVGNWRGAS | 0.678 |
| ARWRVGPWRGAS | 0.68 |
| ARWRVGRWRGAS | 0.688 |
| ARWRVTLWRGAS | 0.692 |
| ARWSVGLWRGAS | 0.692 |
| ATWRVGLWRGAS | 0.685 |
| CGSCGYKFRTNN | 0.687 |

| Sequence | protein stability index |
| --- | --- |
| CISCGYKFRTNN | 0.725 |
| CTSCGFKFRTNN | 0.697 |
| CTSCGMKFRTNN | 0.715 |
| CTSCGYKFCTNN | 0.698 |
| CTSCGYKFPTNN | 0.728 |
| CTSCGYKFRCNN | 0.695 |
| CTSCGYKFRINN | 0.721 |
| CTSCGYKFRLNN | 0.701 |
| CTSCGYKFRTDN | 0.653 |
| CTSCGYKFRTNE | 0.685 |
| CTSCGYKFRTNM | 0.731 |
| CTSCGYKFRTNNA | 0.697 |
| CTSCGYKFRTNNE | 0.711 |
| CTSCGYKFRTNNV | 0.69 |
| CTSCGYKYRTNN | 0.674 |
| CTSCGYMFRTNN | 0.682 |
| CTSCHYKFRTNN | 0.64 |
| CVVYLSCVACIN | 0.0323 |
| DRWRVGLWRGAS | 0.657 |
| DTSCGYKFRTNN | 0.68 |
| FAMRWTFRYWVN | 0.476 |

| Sequence | protein stability index |
| --- | --- |
| FKILRQKMNHQN | 0.672 |
| FSDRWTFRYWVN | 0.605 |
| FSMGWTFRYWVN | 0.575 |
| FSMLWTFRYWVN | 0.346 |
| FSMRLTFRYWVN | 0.401 |
| FSMRWQFRYWVN | 0.53 |
| FSMRWTCRYWVN | 0.515 |
| FSMRWTFEYWVN | 0.448 |
| FSMRWTFRGWVN | 0.605 |
| FSMRWTFRYIVN | 0.475 |
| FSMRWTFRYWHN | 0.686 |
| FSMRWTFRYWVNF | 0.523 |
| FSMRWTFRYWVNH | 0.559 |
| FSMRWTFRYWVNK | 0.532 |
| FSMRWTFRYWVNR | 0.562 |
| FSMRWTFRYWVNS | 0.542 |
| FSMRWTFRYWVNT | 0.539 |
| FSMRWTPRYWVN | 0.59 |
| FSMRWTVRYWVN | 0.454 |
| FSMYWTFRYWVN | 0.399 |
| FSVRWTFRYWVN | 0.419 |
